Series [1] addresses T1, LmCld (chlorite dismutase-like protein, HemQ) (Listeria monocytogenes, UniProt Q8Y5F1).
T1 construct: gene chdC; N-terminal StrepII-tag, TEV-cleavable (cleaved for crystallization); recombinant in E. coli Tuner (DE3); subunit approx. 30 kDa; hexamer approx. 180 kDa in solution, pentamer in crystal
T1 sequence (Q8Y5F1 1-251): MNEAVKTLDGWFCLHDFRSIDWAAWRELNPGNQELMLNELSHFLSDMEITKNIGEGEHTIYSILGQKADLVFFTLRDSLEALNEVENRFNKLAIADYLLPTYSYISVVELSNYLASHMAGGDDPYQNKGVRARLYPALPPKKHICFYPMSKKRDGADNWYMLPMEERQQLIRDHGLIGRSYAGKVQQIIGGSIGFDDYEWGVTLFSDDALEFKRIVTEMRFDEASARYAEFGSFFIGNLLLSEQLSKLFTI
The series can be described thus: electronic circular dichroism titration, Soret minimum […] nm, Hill fit. Format: binding.

Series [2] concerns the molecule itself. The series can be described thus: SEC-MALS; Superdex 200 10/300 GL, Dulbecco PBS plus 200 mM NaCl, 0.75 mL per min, 50 ug protein injected.
Series [3] concerns the molecule itself. The series can be described thus: crystal structure; apo-LmCld, 0.1 M Tris pH 8.5, 0.6 M potassium sodium tartrate, 8% glycerol; 2.0 A, space group P 1 21 1.

“And” between values parts separate entries of the source, which are not always exact repeats. Equal entries are not always repeated.

For the molecule `C=CC1=C(C)C2=Cc3c(C=C)c(C)c4[n]3[Fe]([Cl])[n]3c(c(C)c(CCC(=O)O)c3=CC3=NC(=C4)C(C)=C3CCC(=O)O)=CC1=N2` [hemin], the Kd (usually the constant that tells how readily two partners part at equilibrium) in series [1] was found to be 7.2 ± 0.5 µM.

B1: apo-LmCld (heme-free chlorite dismutase-like protein from Listeria monocytogenes) (natural protein, UniProt Q8Y5F1 1-251, looked up)
chain: MNEAVKTLDGWFCLHDFRSIDWAAWRELNPGNQELMLNELSHFLSDMEITKNIGEGEHTIYSILGQKADLVFFTLRDSLEALNEVENRFNKLAIADYLLPTYSYISVVELSNYLASHMAGGDDPYQNKGVRARLYPALPPKKHICFYPMSKKRDGADNWYMLPMEERQQLIRDHGLIGRSYAGKVQQIIGGSIGFDDYEWGVTLFSDDALEFKRIVTEMRFDEASARYAEFGSFFIGNLLLSEQLSKLFTI
notes: Chlorite dismutase-like protein (HemQ) of Listeria monocytogenes; subunit of about 30 kDa; Heme-free form; The template was strain L028, the ORF annotation is of strain EGD-e; The tag is TEV-cleavable; also called HemQ; Cld-like protein
Turning to B1, the stoichiometry N (in general, a count of units in the complex or per binding partner) in series [2] was 6 subunits and 12 subunits.

B2: holo-LmCld (heme b-bound chlorite dismutase-like protein from Listeria monocytogenes) (natural protein, UniProt Q8Y5F1 1-251, looked up)
chain: MNEAVKTLDGWFCLHDFRSIDWAAWRELNPGNQELMLNELSHFLSDMEITKNIGEGEHTIYSILGQKADLVFFTLRDSLEALNEVENRFNKLAIADYLLPTYSYISVVELSNYLASHMAGGDDPYQNKGVRARLYPALPPKKHICFYPMSKKRDGADNWYMLPMEERQQLIRDHGLIGRSYAGKVQQIIGGSIGFDDYEWGVTLFSDDALEFKRIVTEMRFDEASARYAEFGSFFIGNLLLSEQLSKLFTI
notes: Chlorite dismutase-like protein (HemQ) of Listeria monocytogenes; subunit of about 30 kDa; heme is partly lost in the high-salt running buffer of the SEC-MALS; also called HemQ; Cld-like protein
B2: the “stoichiometry N” value in series [2] was 6 subunits and 12 subunits.

B3: apo-LmCld, StrepII-tag cleaved off (as crystallized) (natural protein, Listeria monocytogenes, UniProt Q8Y5F1 1-251, looked up)
chain: MNEAVKTLDGWFCLHDFRSIDWAAWRELNPGNQELMLNELSHFLSDMEITKNIGEGEHTIYSILGQKADLVFFTLRDSLEALNEVENRFNKLAIADYLLPTYSYISVVELSNYLASHMAGGDDPYQNKGVRARLYPALPPKKHICFYPMSKKRDGADNWYMLPMEERQQLIRDHGLIGRSYAGKVQQIIGGSIGFDDYEWGVTLFSDDALEFKRIVTEMRFDEASARYAEFGSFFIGNLLLSEQLSKLFTI
notes: Chlorite dismutase-like protein (HemQ) of Listeria monocytogenes; Heme-free; homopentamer in the crystal lattice; also called HemQ; LmCld (4WWS); source: E. coli Tuner (DE3), purified (StrepTrap, TEV cleavage, Superdex 200); not shown: StrepII, N-terminal, cleaved
With B3, the “stoichiometry N” value in series [3] amounted to 5 subunits.

Source of the values: paper PMC4420033, “Structure and heme-binding properties of HemQ (chlorite dismutase-like protein) from Listeria monocytogenes” (Archives of Biochemistry and Biophysics, 2015).
